B1: B11: fully human IgG1 antibody specific for ICAM-1; VH and VL sequences of FIG. 10 (SEQ ID NOs. 6 and 8) (antibody, listed as Homo sapiens, V domains shown)
VH: EVQLLESGGGLVQPGGSLRLSCAASGFTFSNAWMSWVRQAPGKGLEWVAFIWYDGSNKYYADSVKGRFTISRDNSKNTLYLQMNSLRAEDTAVYYCARYSGWYFDYWGQGTLVTVSS
VL: QSVLTQPPSASGTPGQRVTISCTGSSSNIGAGYDVHWYQQLPGTAPKLLIYDNNNRPSGVPDRFSGSKSGTSASLAISGLRSEDEADYYCQSYDSSLSAWLFGGGTKLTVLG
B2: C11: fully human IgG1 antibody specific for surface IgM; VH and VL sequences of FIG. 11 (SEQ ID NOs. 10 and 12) (antibody, listed as Homo sapiens, V domains shown)
VH: EVQLLESGGGLVQPGGSLRLSCAASGFTFGSYEMNWVRQAPGKGLEWVSVIYSGGSTYYADSVEGRFTISRDNSKNTLYLQMNSLRAEDTAVYYCARDTNPYYYYGMDVWGQGTLVTVSS
VL: QSVLTQPPSASGTPGQRVTISCSGSSSNIGNNAVNWYQQLPGTAPKLLIYRNNQRPSGVPDRFSGSKSGTSASLAISGLRSEDEADYYCQSYDSSLNGQVFGGGTKLTVLG

Experiments:
[1] = tested on: BJAB; experiment: IgG binding to B lymphoma cell line, flow cytometry MFI; design: species or system human; settings: Burkitt's Lymphoma, control FITC-8 IgG MFI subtracted
Description: (§1) • ^aApoptosis Induction; determined by percentage of viable cells after 6 hour incubation with any of the human antibodies, crosslinked with Goat anti-Human (gamma) Fc specific antibody; −, viability not affected; +, 95-80%; ++, 79-60%; +++, 59-40% viable cells compared to control (human FITC-8 IgG1). […] The cell line dependent MFI value of control human FITC-8 IgG antibody was subtracted from the MFI of each human antibody.

[2] = tested on: CL-01; experiment: as above; design: species or system human; settings: CL-01, Burkitt's Lymphoma; control FITC-8 IgG MFI subtracted
Description: as §1

[3] = tested on: DOHH-2; experiment: as above; design: species or system human; settings: DOHH-2, Follicular Lymphoma; control FITC-8 IgG MFI subtracted
Description: as §1

[4] = tested on: Daudi; experiment: as above; design: species or system human; settings: Burkitt's Lymphoma, control FITC-8 IgG MFI subtracted
Description: as §1

[5] = tested on: Granta 519; experiment: as above; design: species or system human; settings: Granta 519, Mantle cell Lymphoma; control FITC-8 IgG MFI subtracted
Description: as §1

[6] = tested on: JVM-2; experiment: as above; design: species or system human; settings: JVM-2, Mantle cell Lymphoma; control FITC-8 IgG MFI subtracted
Description: as §1

[7] = tested on: Jeko-1; experiment: as above; design: species or system human; settings: Jeko-1, Mantle cell Lymphoma; control FITC-8 IgG MFI subtracted
Description: as §1

[8] = tested on: NCEB-1; experiment: as above; design: species or system human; settings: NCEB-1, Mantle cell Lymphoma; control FITC-8 IgG MFI subtracted
Description: as §1

[9] = tested on: RL; experiment: as above; design: species or system human; settings: Follicular Lymphoma, control FITC-8 IgG MFI subtracted
Description: as §1

[10] = tested on: Raji; experiment: as above; design: species or system human; settings: Burkitt's Lymphoma, control FITC-8 IgG MFI subtracted
Description: as §1

[11] = tested on: Ramos; experiment: as above; design: species or system human; settings: Burkitt's Lymphoma, control FITC-8 IgG MFI subtracted
Description: as §1

[12] = tested on: Rec-1; experiment: as above; design: species or system human; settings: Rec-1, Mantle cell Lymphoma; control FITC-8 IgG MFI subtracted
Description: as §1

[13] = tested on: SC-1; experiment: as above; design: species or system human; settings: SC-1, Follicular Lymphoma; control FITC-8 IgG MFI subtracted
Description: as §1

[14] = tested on: SP-53; experiment: as above; design: species or system human; settings: SP-53, Mantle cell Lymphoma; control FITC-8 IgG MFI subtracted
Description: as §1

[15] = tested on: WSU-NHL; experiment: as above; design: species or system human; settings: Follicular Lymphoma, control FITC-8 IgG MFI subtracted
Description: as §1

[16] = tested on: Reh/KM-3; experiment: IgG binding to pre B cell leukaemia cell line, flow cytometry MFI; design: species or system human; settings: Reh/KM-3, pre B cell Leukaemia; control FITC-8 IgG MFI subtracted
Description: as §1

[17] = tested on: MC/CAR; experiment: IgG binding to multiple myeloma cell line, flow cytometry MFI; design: species or system human; settings: control FITC-8 IgG MFI subtracted
Description: as §1

[18] = tested on: DOHH-2; experiment: Apoptosis induction by cross-linked IgG (Annexin V/PI); format: cell-based, human; settings: viable cells after 6 hour incubation, crosslinked, compared to control FITC-8 IgG1
Description: (§2) 2×10^5 B lymphoma cells (Raji or Ramos) or Jurkat T cells were incubated with serially diluted and detoxified scFv's in culture medium for 1 h on ice.
(§3) When whole IgGs were used for apoptosis induction, cross-linking reagent was replaced by goat Fab′2 anti-human Fc γ antibody (Jackson ImmunoResearch) with minimal cross-reactivity with non-IgG antibody isotypes (to avoid unspecific cross-linking of endogenous B lymphoma associated surface immunoglobulins) and incubated, as described above, for 6 h.
(§4) Apoptotic cells were, unless otherwise stated, detected by combined staining with Annexin V Alexa Fluor 488 (AV) and Propidium Iodide (PI) (both from Molecular Probes, Invitrogen) and subsequent flow-cytometric analysis, Cells were defined as viable (AV−/PI−), early apoptotic (AV+/PI−) or late apoptotic/necrotic (AV+/PI+). AV and PI signals were recorded in the FL1 and FL2 or FL3 channels (as indicated in the text), respectively, using a FACSCalibur instrument (BD Biosciences).
as §1

[19] = tested on: JVM-2; experiment: as above; format: cell-based, human; settings: viable cells after 6 hour incubation, crosslinked, compared to control FITC-8 IgG1
Description: as §2, §3, §4, §1

[20] = tested on: NCEB-1; experiment: as above; format: cell-based, human; settings: viable cells after 6 hour incubation, crosslinked, compared to control FITC-8 IgG1
Description: as §2, §3, §4, §1

[21] = tested on: Rec-1; experiment: as above; format: cell-based, human; settings: viable cells after 6 hour incubation, crosslinked, compared to control FITC-8 IgG1
Description: as §2, §3, §4, §1

[22] = tested on: WSU-NHL; experiment: as above; format: cell-based, human; settings: viable cells after 6 hour incubation, crosslinked, compared to control FITC-8 IgG1
Description: as §2, §3, §4, §1

[23] = tested on: Daudi; experiment: as above; format: cell-based, human; settings: for Apoptosis Induction: Daudi, viable cells after 6 hour incubation, crosslinked, compared to control FITC-8 IgG1
Description: as §2, §3, §4, §1
(§5) BI-505 receptor occupancy was studied following FACS analyses of tumor cells incubated with increasing concentrations of BI-505 in vitro. Briefly, following pre-blocking of tumor cell FcγR with 1 mg/ml human IgG on ice for 15 min, tumor cells were incubated with 10-fold serially diluted (10 μg/ml to 0.00001 μg/ml) AF647-BI505 and surface bound BI-505 was recorded as the mean fluorescence intensities (MFI) picked up in the FL4 channel of a FACSCalibur instrument. The experiment was repeated three times and mean MFI values were calculated and plotted as a function of antibody concentration. A binding saturation curve was generated by plotting mean MFI values as a function of BI-505 concentration. The curve was fitted using a five-parameter log-log curve and XLfit software. BI-505 concentration dependent PCD was calculated by plotting the percentage of maximal tumor PCD in vitro as a function of BI-505 concentration in a manner analogous to that described for BI-505 receptor occupancy. Briefly, tumor cells were cultured with increasing concentrations of BI-505 in the presence of hyper-cross-linking antibody reagent for 24 hr, and PCD was monitored after combined staining with Annexin V/AF488 and propidium iodide using flow cytometry. Cells received treatment in triplicate and the experiment was repeated three to five times. Mean percentage of maximal PCD was then plotted as a function of BI-505 concentration and was fitted using a five parameter log-log curve and XLfit software. In vitro PCD and in vivo anti-tumor activity were plotted as a function of receptor occupancy using curve fitting equations and data generated and described above.

[24] = tested on: Raji; experiment: as above; format: cell-based, human; settings: for Apoptosis Induction: Raji, viable cells after 6 hour incubation, crosslinked, compared to control FITC-8 IgG1
Description: as §2, §3, §4, §1, §5

[25] = tested on: Ramos; experiment: as above; format: cell-based, human; settings: for Apoptosis Induction: Ramos, viable cells after 6 hour incubation, crosslinked, compared to control FITC-8 IgG1
Description: as §2, §3, §4, §1, §5

Molecule	MFI [1]	MFI [2]	MFI [3]	MFI [4]	MFI [5]	MFI [6]	MFI [7]	MFI [8]	MFI [9]	MFI [10]	MFI [11]	MFI [12]	MFI [13]	MFI [14]	MFI [15]	MFI [16]	MFI [17]	Apoptosis Induction [18]	Apoptosis Induction [19]	Apoptosis Induction [20]	also measured
B1	310	600	100	150	260	100	30	340	100	420	100	380	0	90	0	20	120	−	−	+ (95-80%)	Apoptosis Induction [21]: −; Apoptosis Induction [22]: −; Apoptosis Induction [23]: + (95-80%); PCD induction ([23]; ICAM-1-expressing Daudi lymphoma cells): dose-dependently induced PCD; PCD induction ([24]; ICAM-1-expressing Raji lymphoma cells): dose-dependently induced PCD; Apoptosis Induction [24]: + (95-80%); PCD induction ([25]; ICAM-1-expressing Ramos lymphoma cells): dose-dependently induced PCD; Apoptosis Induction [25]: ++ (79-60%)
B2	510	60	90	450	60	10	1040	10	210	20	240	900	50	360	60	0	0	−	−	−	Apoptosis Induction [21]: −; Apoptosis Induction [22]: −; Apoptosis Induction [23]: + (95-80%); Apoptosis Induction [24]: + (95-80%); Apoptosis Induction [25]: +++ (59-40% viable cells compared to control (human FITC-8 IgG1))

Reference: patent US9803013B2, “Biological materials and uses thereof” (BioInvent International AB, priority 2005, dated 2017)
